Data published in the supplement of paper PMC10567573.

B1: SETD8 (parent)
chain: FVVEYHGDLIEITDAKKREALYAQ

Variants of: B1
Assay: protein stability index of a GFP-peptide fusion (GPS, HEK-293T) (PSI 1-6); higher = more stable
Conditions: c terminus: a fixed tail appended
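Further: lentivirally expressed fusions sorted by FACS into six bins by GFP to DsRed ratio, PSI derived from sequencing read proportions per bin multiplied by bin number.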

| Variant | protein stability index |
| --- | --- |
| FVVEYHGDLIEITDHKKREALYAQ [A15H] | 1.87 |
| FVVEYHGDLIEITDIKKREALYAQ [A15I] | 2.04 |
| FVVEYHGDLIEITDKKKREALYAQ [A15K] | 2.33 |
| FVVEYHGDLIEITDLKKREALYAQ [A15L] | 1.93 |
| FVVEYHGDLIEITDMKKREALYAQ [A15M] | 2.69 |
| FVVEYHGDLIEITDNKKREALYAQ [A15N] | 1.43 |
| FVVEYHGDLIEITDPKKREALYAQ [A15P] | 2.73 |
| FVVEYHGDLIEITDQKKREALYAQ [A15Q] | 2.22 |
| FVVEYHGDLIEITDRKKREALYAQ [A15R] | 3.06 |
| FVVEYHGDLIEITDSKKREALYAQ [A15S] | 1.88 |
| FVVEYHGDLIEITDTKKREALYAQ [A15T] | 1.51 |
| FVVEYHGDLIEITDVKKREALYAQ [A15V] | 2.3 |
| FVVEYHGDLIEITDWKKREALYAQ [A15W] | 2.37 |
| FVVEYHGDLIEITDYKKREALYAQ [A15Y] | 1.13 |
| FVVEYHGDLIEITDAAKREALYAQ [K16A] | 1.7 |
| FVVEYHGDLIEITDACKREALYAQ [K16C] | 1 |
| FVVEYHGDLIEITDADKREALYAQ [K16D] | 2.05 |
| FVVEYHGDLIEITDAEKREALYAQ [K16E] | 2.08 |
| FVVEYHGDLIEITDAFKREALYAQ [K16F] | 2.13 |
| FVVEYHGDLIEITDAGKREALYAQ [K16G] | 1.51 |
| FVVEYHGDLIEITDAHKREALYAQ [K16H] | 2.3 |
| FVVEYHGDLIEITDAIKREALYAQ [K16I] | 1.78 |
| FVVEYHGDLIEITDAMKREALYAQ [K16M] | 1.59 |
| FVVEYHGDLIEITDANKREALYAQ [K16N] | 1.68 |

| Variant | protein stability index |
| --- | --- |
| FVVEYHGDLIEITDAPKREALYAQ [K16P] | 1.5 |
| FVVEYHGDLIEITDAQKREALYAQ [K16Q] | 2.48 |
| FVVEYHGDLIEITDARKREALYAQ [K16R] | 2.07 |
| FVVEYHGDLIEITDASKREALYAQ [K16S] | 2.59 |
| FVVEYHGDLIEITDATKREALYAQ [K16T] | 1.28 |
| FVVEYHGDLIEITDAVKREALYAQ [K16V] | 1.76 |
| FVVEYHGDLIEITDAWKREALYAQ [K16W] | 3.04 |
| FVVEYHGDLIEITDAKAREALYAQ [K17A] | 1.59 |
| FVVEYHGDLIEITDAKCREALYAQ [K17C] | 2.17 |
| FVVEYHGDLIEITDAKDREALYAQ [K17D] | 1.65 |
| FVVEYHGDLIEITDAKEREALYAQ [K17E] | 2.14 |
| FVVEYHGDLIEITDAKFREALYAQ [K17F] | 2.17 |
| FVVEYHGDLIEITDAKGREALYAQ [K17G] | 1.26 |
| FVVEYHGDLIEITDAKHREALYAQ [K17H] | 1.61 |
| FVVEYHGDLIEITDAKIREALYAQ [K17I] | 1.75 |
| FVVEYHGDLIEITDAKLREALYAQ [K17L] | 1.73 |
| FVVEYHGDLIEITDAKMREALYAQ [K17M] | 2.46 |
| FVVEYHGDLIEITDAKNREALYAQ [K17N] | 2.06 |
| FVVEYHGDLIEITDAKQREALYAQ [K17Q] | 1.85 |
| FVVEYHGDLIEITDAKRREALYAQ [K17R] | 1.33 |
| FVVEYHGDLIEITDAKSREALYAQ [K17S] | 1.81 |
| FVVEYHGDLIEITDAKTREALYAQ [K17T] | 1.6 |
| FVVEYHGDLIEITDAKVREALYAQ [K17V] | 2.07 |
| FVVEYHGDLIEITDAKWREALYAQ [K17W] | 1.84 |

| Variant | protein stability index |
| --- | --- |
| FVVEYHGDLIEITDAKYREALYAQ [K17Y] | 1.34 |
| FVVEYHGDLIEITDAKKAEALYAQ [R18A] | 1.74 |
| FVVEYHGDLIEITDAKKCEALYAQ [R18C] | 2.32 |
| FVVEYHGDLIEITDAKKDEALYAQ [R18D] | 2.27 |
| FVVEYHGDLIEITDAKKFEALYAQ [R18F] | 1.75 |
| FVVEYHGDLIEITDAKKGEALYAQ [R18G] | 1.24 |
| FVVEYHGDLIEITDAKKHEALYAQ [R18H] | 2.39 |
| FVVEYHGDLIEITDAKKIEALYAQ [R18I] | 3.16 |
| FVVEYHGDLIEITDAKKLEALYAQ [R18L] | 1.87 |
| FVVEYHGDLIEITDAKKMEALYAQ [R18M] | 2.98 |
| FVVEYHGDLIEITDAKKNEALYAQ [R18N] | 2.31 |
| FVVEYHGDLIEITDAKKPEALYAQ [R18P] | 1.56 |
| FVVEYHGDLIEITDAKKQEALYAQ [R18Q] | 1.46 |
| FVVEYHGDLIEITDAKKSEALYAQ [R18S] | 2.04 |
| FVVEYHGDLIEITDAKKTEALYAQ [R18T] | 1.57 |
| FVVEYHGDLIEITDAKKVEALYAQ [R18V] | 1.82 |
| FVVEYHGDLIEITDAKKWEALYAQ [R18W] | 2.33 |
| FVVEYHGDLIEITDAKKYEALYAQ [R18Y] | 2.2 |
| FVVEYHGDLIEITDAKKRAALYAQ [E19A] | 2.41 |
| FVVEYHGDLIEITDAKKRCALYAQ [E19C] | 2.87 |
| FVVEYHGDLIEITDAKKRDALYAQ [E19D] | 1.51 |
| FVVEYHGDLIEITDAKKRFALYAQ [E19F] | 2.97 |
| FVVEYHGDLIEITDAKKRGALYAQ [E19G] | 1.75 |
| FVVEYHGDLIEITDAKKRHALYAQ [E19H] | 1.64 |

| Variant | protein stability index |
| --- | --- |
| FVVEYHGDLIEITDAKKRKALYAQ [E19K] | 1.47 |
| FVVEYHGDLIEITDAKKRLALYAQ [E19L] | 3.57 |
| FVVEYHGDLIEITDAKKRMALYAQ [E19M] | 2.3 |
| FVVEYHGDLIEITDAKKRNALYAQ [E19N] | 1.27 |
| FVVEYHGDLIEITDAKKRPALYAQ [E19P] | 1.84 |
| FVVEYHGDLIEITDAKKRQALYAQ [E19Q] | 1.7 |
| FVVEYHGDLIEITDAKKRRALYAQ [E19R] | 2.84 |
| FVVEYHGDLIEITDAKKRSALYAQ [E19S] | 1.81 |
| FVVEYHGDLIEITDAKKRTALYAQ [E19T] | 2.42 |
| FVVEYHGDLIEITDAKKRVALYAQ [E19V] | 1.51 |
| FVVEYHGDLIEITDAKKRWALYAQ [E19W] | 1.96 |
| FVVEYHGDLIEITDAKKRYALYAQ [E19Y] | 1.81 |
| FVVEYHGDLIEITDAKKRECLYAQ [A20C] | 2.08 |
| FVVEYHGDLIEITDAKKREDLYAQ [A20D] | 2.48 |
| FVVEYHGDLIEITDAKKREELYAQ [A20E] | 2.67 |
| FVVEYHGDLIEITDAKKREFLYAQ [A20F] | 1.39 |
| FVVEYHGDLIEITDAKKREGLYAQ [A20G] | 1.75 |
| FVVEYHGDLIEITDAKKREHLYAQ [A20H] | 2.64 |
| FVVEYHGDLIEITDAKKREILYAQ [A20I] | 2.09 |
| FVVEYHGDLIEITDAKKREKLYAQ [A20K] | 1.85 |
| FVVEYHGDLIEITDAKKRELLYAQ [A20L] | 1.39 |
| FVVEYHGDLIEITDAKKREMLYAQ [A20M] | 1.38 |
